{
  "source": "paper PMC9135441",
  "key": {"[1]": {"system": "O=C[C@H](O)[C@@H](O)[C@H](O)[C@@H](O)CO", "assay": "purified protein", "settings": "NADPH"}, "CCCCCC(O)C=CC=O": {"system": "CCCCCC(O)C=CC=O", "assay": "purified protein", "settings": "NADPH"}},
  "data": [
    {"substance": "aldose reductase (AKR1B1) (Homo sapiens)", "values": [
      {"measurement": "Km", "setting": "[1]", "result": "4260 ± 350", "unit": "µM"},
      {"measurement": "Km", "setting": "CCCCCC(O)C=CC=O", "result": "51 ± 5", "unit": "µM"}
    ]}
  ]
}
